Experimental findings from publication PMC6213154, “Mapping the Contact Sites of the Escherichia coli Division-Initiating Proteins FtsZ and ZapA by BAMG Cross-Linking and Site-Directed Mutagenesis” (International Journal of Molecular Sciences, 2018) are described below.

First the molecules themselves.
B1: ZapA (Z associated protein A), Escherichia coli (natural protein, E. coli)
chain: MSAQPVDIQIFGRSLRVNCPPDQRDALNQAADDLNQRLQDLKERTRVTNTEQLVFIAALNISYELAQEKAKTRDYAASMEQRIRMLQQTIEQALLEQGRITEKTNQNFE
notes: ZapA, Escherichia coli; source: isolated using a His-tagged version, His-tag removed by proteolysis, as described [8]
B2: FtsZ (Filamenting temperature sensitive Z), Escherichia coli (natural protein, E. coli, UniProt P0A9A6 1-383, looked up)
chain: MFEPMELTNDAVIKVIGVGGGGGNAVEHMVRERIEGVEFFAVNTDAQALRKTAVGQTIQIGSGITKGLGAGANPEVGRNAADEDRDALRAALEGADMVFIAAGMGGGTGTGAAPVVAEVAKDLGILTVAVVTKPFNFEGKKRMAFAEQGITELSKHVDSLITIPNDKLLKVLGRGISLLDAFGAANDVLKGAVQGIAELITRPGLMNVDFADVRTVMSEMGYAMMGSGVASGEDRAEEAAEMAISSPLLEDIDLSGARGVLVNITAGFDLRLDEFETVGNTIRAFASDNATVVIGTSLDPDMNDELRVTVVATGIGMDKRPEITLVTNKQVQQPVMDRYQQHGMAPLTQEQKPVAKVVNDNAPQTAKEPDYLDIPAFLRKQAD
notes: FtsZ, Escherichia coli; tryptic peptides up to the C-terminal KQAD (residues 380-383) were identified; In the cross-linking experiments a 1:1 mixture of 14N- and 15N-labelled FtsZ was used (about 95% 15N); Polymerised with GTP into protofilaments; also called ^14N-FtsZ; ^15N-FtsZ; source: E. coli BL21(DE3) pRRE6, isolated as described [52]

In data set [1] the target is B2. Description: cross-linking; BAMG (100-150 uM) added 30-60 s after GTP, 30 min at 30 °C; trypsin digest, enrichment on ARCO resin, SCX, LC-MS/MS; 3.4 uM FtsZ (14N:15N 1:1), 6.8 uM ZapA, 50 mM HEPES pH 7.5, 50 mM KCl, 5 mM MgCl2, 60 uM GTP; no Ca2+. To be noted: both partners purified.
Data set [2] deals with the molecule itself. Described as above.
Data set [3] concerns the molecule itself. Description: cross-linking; BAMG, LC-MS/MS; bundling conditions: FtsZ (14N:15N 1:1) without ZapA, 10 mM CaCl2, 30 uM GTP, polymerization buffer pH 7.5, 30 °C.

As usually defined, the stoichiometry N is a count of units in the complex or per binding partner. Take B1: the binding result in data set [1] is recorded as “binds”. For the same molecule, the “stoichiometry N” value in data set [2] worked out at 4.
On to B2, for which the binding result in data set [3] is listed as “binds”.
